{
  "source": "paper PMC2674315",
  "about": "(Biochemistry, 2008)",
  "molecules": {"B1": {"name": "Sam domain of the EphA2 receptor (domain or fragment, human, UniProt P29317 901-976, looked up)", "chain": "SEGVPFRTVSEWLESIKMQQYTEHFMAAGYTAIEKVVQMTNDDIKRIGVRLPGHQKRIAYSLLGLKDQVNTVGIPI"}, "B2": {"name": "Sam domain of Ship2 (Src homology 2 domain-containing phosphoinositide-5-phosphatase 2) (domain or fragment, human, UniProt O15357 1194-1258, looked up)", "chain": "SGLGEAGMSAWLRAIGLERYEEGLVHNGWDDLEFLSDITEEDLEEAGVQDPAHKRLLLDTLQLSK"}},
  "key": {"[1]": {"target": "Sam domain of Ship2 (Src homology 2 domain-containing phosphoinositide-5-phosphatase 2) (human) (UniProt O15357)", "test": "AUC"}, "[2]": {"target": "Arap3-Sam Sam (Homo sapiens) (UniProt Q8WWN8)", "sequence (Q8WWN8 1-71)": "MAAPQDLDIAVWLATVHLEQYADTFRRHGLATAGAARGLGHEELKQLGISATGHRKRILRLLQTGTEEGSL", "test": "ITC", "settings": "cited from earlier work"}, "[3]": {"target": "B2", "test": "ITC"}, "[4]": {"target": "T1, EphA2-Sam double mutant (H924N, R950A) (human, UniProt P29317 901-976, H924N | R950A)", "T1 sequence (looked up)": "B1 chain with H24N, R50A", "test": "ITC"}, "[5]": {"target": "B1", "test": "ITC"}, "[6]": {"target": "T2, Sam domain of the EphA2 receptor, polyHis-tag cut with thrombin (human, UniProt P29317 901-976)", "T2 sequence (looked up)": "B1 chain", "test": "ITC"}},
  "note": "Residue numbers refer to the chain shown, from its start.",
  "data": [
    {"molecule": "Sam domain of Ship2 (Src homology 2 domain-containing phosphoinositide-5-phosphatase 2) (from UniProt O15357 1194-1258) (domain or fragment)", "values": [
      {"measurement": "Kd", "setting": "[1]", "result": 2000, "unit": "µM"}
    ]},
    {"molecule": "Ship2-Sam Sam (from UniProt O15357)", "values": [
      {"measurement": "Kd", "setting": "[2]", "result": 0.1, "unit": "µM"}
    ]},
    {"molecule": "B1", "values": [
      {"measurement": "stoichiometry N", "setting": "[3]", "result": 1}
    ]},
    {"molecule": "B2", "values": [
      {"measurement": "Kd", "setting": "[4]", "result": "1.8 ± 0.6", "unit": "µM"},
      {"measurement": "Kd", "setting": "[5]", "result": "0.75 ± 0.12", "unit": "µM"}
    ]},
    {"molecule": "Ac-EGLVHNGWDDLEFLSDITEEDL-NH2", "note": "[Shiptide (minimal peptide region of Ship2-Sam)]", "values": [
      {"measurement": "Kd", "setting": "[6]", "result": "19 ± 3", "unit": "µM"}
    ]}
  ]
}
